Tests used:
[1] = target: PHOX2A, MYC- or HA-tagged (human) (UniProt O14813)
[2] = target: PHOX2B +7Ala fused to GAL4 BD or VP16 AD (human) (UniProt Q99453); assay: two-hybrid; mammalian two-hybrid (CheckMate, Promega) in neuroblastoma SK-N-BE(2)C cells; GAL4 BD fusion (pBIND) and VP16 AD fusion (pACT), 80 fmol each, with 160 fmol pG5LUC; Dual-Luciferase assay
[3] = target: PHOX2B +13Ala fused to GAL4 BD or VP16 AD (human) (UniProt Q99453); assay: as above

PHOX2B +7 alanine mutant, MYC- or HA-tagged (from UniProt Q99453 1-314) (natural protein)
luciferase activity of the DBH promoter reporter in HeLa cells co-transfected with PHOX2A and the PHOX2B +7 alanine mutant (fold over the empty vector) [1]: 23

PHOX2B +7Ala fused to GAL4 BD or VP16 AD (from UniProt Q99453 1-314) (natural protein)
fold increase in luciferase activity [2]: 1.7 fold

PHOX2B +13Ala fused to GAL4 BD or VP16 AD (from UniProt Q99453 1-314) (natural protein)
fold increase in luciferase activity [3]: 2 fold

From PMC4933246
